Data taken from patent publication US20220372155A1 (LYVGEN BIOPHARMA, published 2022).

What was measured:
[1] = molecular target: T1, human CD40 expressed on CHO cells (human, UniProt P25942 21-277); assay: FACS, CHO cells
T1 construct: whole, on cells; also used for the reporter cells over-expressing human CD40; also called cellular CD40; CHO-CD40 cells

[2] = molecular target: T2, human PD-1 expressed on CHO cells (human, UniProt Q15116 25-288); assay: FACS, CHO cells
T2 construct: whole, on cells; also used for human PD-1 on Jurkat reporter cells; also called Jurkat/NFkB-Luci/PD-1 cells
T2 sequence (Q15116 25-288): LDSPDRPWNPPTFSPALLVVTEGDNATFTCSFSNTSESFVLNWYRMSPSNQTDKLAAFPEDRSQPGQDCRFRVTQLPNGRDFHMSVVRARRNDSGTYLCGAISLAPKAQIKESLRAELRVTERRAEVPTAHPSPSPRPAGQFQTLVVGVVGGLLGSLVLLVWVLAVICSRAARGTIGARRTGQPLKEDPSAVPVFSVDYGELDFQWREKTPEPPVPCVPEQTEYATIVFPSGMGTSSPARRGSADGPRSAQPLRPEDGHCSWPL

[3] = molecular target: T3, Ly090 (human CD40 ECD protein with His tag) (human, UniProt P25942 21-193); assay: bridging ELISA, coated CD40 ECD-His, soluble PD-1 ECD-mFc
T3 construct: extracellular domain; also called human CD40 ECD protein (His tag); recombinant human CD40; not shown: His tag
T3 sequence (P25942 21-193): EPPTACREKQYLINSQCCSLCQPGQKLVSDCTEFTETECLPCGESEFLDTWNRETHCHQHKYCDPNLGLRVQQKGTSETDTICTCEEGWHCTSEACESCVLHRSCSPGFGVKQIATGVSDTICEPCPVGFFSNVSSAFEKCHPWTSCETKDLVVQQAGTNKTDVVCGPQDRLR
Protocol: (§1) Briefly, human CD40 ECD protein (His tag) was diluted and coated onto an ELISA plate with a volume of […] by incubation at 4° C. overnight. […] After 1-hour incubation at room temperature, HRP-conjugated anti-Mouse IgG (H+L) antibody was added into the plate at 100 μL/well. The plate was incubated for 1 hour at room temperature followed by washing. TMB substrate solution was added at 100 μL/well and the color development was stopped by adding 100 uL/well Stop Solution (2N H2SO4). Absorbance at 450 nm and 620 nm was read by Tecan F200 Pro plate reader. GraphPad 7.0, “[Agonist] vs. response—Variable slope (four parameters)” was used to plot the binding data and calculate binding EC50 values.

[4] = molecular target: T4, Human PD-1-ECD protein (mouse IgG2a Fc tag) (human, UniProt Q15116 25-170); assay: as above
T4 construct: extracellular domain; also called soluble human recombinant PD-1; not shown: mouse IgG2a Fc tag
T4 sequence (Q15116 25-170): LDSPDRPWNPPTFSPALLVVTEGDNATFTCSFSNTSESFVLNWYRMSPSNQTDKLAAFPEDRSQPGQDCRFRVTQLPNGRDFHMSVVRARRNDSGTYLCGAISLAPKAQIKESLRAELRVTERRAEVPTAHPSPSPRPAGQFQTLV
Protocol: as §1

[5] = molecular target: T5, human PD-L1 expressed on CHO cells (human, UniProt Q9NZQ7 19-290); assay: FACS, CHO cells
T5 construct: whole, on cells; also used for human PD-L1 on Raji cells in the reporter assay; also called cell surface PD-L1; Raji-PD-L1 cells
T5 sequence (Q9NZQ7 19-290): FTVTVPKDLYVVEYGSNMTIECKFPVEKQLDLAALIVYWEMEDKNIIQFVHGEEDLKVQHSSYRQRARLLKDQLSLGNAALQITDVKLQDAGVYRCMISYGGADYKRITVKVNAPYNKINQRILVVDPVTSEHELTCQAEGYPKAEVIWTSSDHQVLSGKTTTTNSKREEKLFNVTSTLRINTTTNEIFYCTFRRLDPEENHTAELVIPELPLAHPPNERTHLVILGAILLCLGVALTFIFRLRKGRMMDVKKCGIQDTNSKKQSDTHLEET

[6] = molecular target: T3, Ly090 (human CD40 ECD protein with His …); assay: bridging ELISA, coated CD40 ECD-His, soluble PD-L1 ECD-mFc
Protocol: (§2) Exemplary anti-PD-L1/CD40 bi-specific antibodies were analyzed by ELISA for their simultaneous binding to recombinant human PD-L1 and human CD40. Briefly, Ly090 (human CD40 ECD protein with His tag) was diluted and coated onto an ELISA plate with a volume of 100 μL/well by incubation at 4° C. overnight. The next day, the plate was blocked by PBST-BSA buffer, then serially diluted samples of anti-PD-L1/CD40 bi-specific antibodies were pipetted into appropriate wells at 50 μL/well, and the plate was incubated for 1 h followed by Washing. Human PD-L1 ECD protein (mouse IgG2a Fc tag) was added into the plate at 50 μL/well. After 1-hour incubation at room temperature, HRP-conjugated anti-Mouse IgG, Fc G2a antibody was added into the plate at 100 μL/well. The plate was incubated for 1 hour at room temperature followed by washing. TMB substrate solution was added at 100 μL/well and the color development was stopped by adding 100 uL/well Stop Solution (2N H₂SO₄). Absorbance at 450 nm and 620 nm was read by Tecan F200 Pro plate reader. GraphPad 7.0, “[Agonist] vs. response—Variable slope (four parameters)” was used to plot the binding data and calculate binding EC50 values.

[7] = molecular target: T6, Human PD-L1 ECD protein (mouse IgG2a Fc tag) (human, UniProt Q9NZQ7 19-238); assay: as above
T6 construct: extracellular domain; also called recombinant human PD-L1; not shown: mouse IgG2a Fc tag
T6 sequence (Q9NZQ7 19-238): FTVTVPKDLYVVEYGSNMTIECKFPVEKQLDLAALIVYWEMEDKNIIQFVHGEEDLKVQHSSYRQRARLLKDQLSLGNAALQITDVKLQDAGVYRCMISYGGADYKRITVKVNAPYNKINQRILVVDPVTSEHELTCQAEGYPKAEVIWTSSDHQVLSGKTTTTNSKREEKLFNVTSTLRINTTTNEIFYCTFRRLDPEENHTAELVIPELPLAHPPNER
Protocol: as §2

Measured: binding result

T1 sequence (P25942 21-277): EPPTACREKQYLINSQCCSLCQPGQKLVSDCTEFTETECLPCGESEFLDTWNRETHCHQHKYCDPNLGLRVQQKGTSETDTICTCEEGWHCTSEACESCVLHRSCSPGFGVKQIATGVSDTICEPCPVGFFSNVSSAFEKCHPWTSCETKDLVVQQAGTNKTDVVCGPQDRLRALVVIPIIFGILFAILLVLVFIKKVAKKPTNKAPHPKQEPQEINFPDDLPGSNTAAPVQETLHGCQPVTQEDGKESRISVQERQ

B1: Ly608 (bispecific antibody, human IgG1, kappa)
heavy: QVTLKESGPALVKPTQTLTLTCTFSGFSLSTSGTCVSWIRQPPGKALEWLATICWEDSKGYNPSLKSRLTISKDTSKNQAVLTMTNMDPVDTATYYCARREDSGYFWFPYWGQGTLVTVSSASTKGPSVFPLAPSSKSTSGGTAALGCLVKDYFPEPVTVSWNSGALTSGVHTFPAVLQSSGLYSLSSVVTVPSSSLGTQTYICNVNHKPSNTKVDKKVEPKSCDKTHTCPPCPAPELLGPSVFLFPPKPKDTLMISRTPEVTCVVVDVSHEDPEVKFNWYVDGVEVHNAKTKPREEQYNSTYRVVSVLTVLHQDWLNGKEYKCKVSNKALPAPIEKTISKAKGQPREPQVYTLPPSREEMTKNQVSLTCLVKGFYPSDIAVEWESNGQPENNYKTTPPVLDSDGSFFLYSKLTVDKSRWQQGNVFSCSVMHEALHNHYTQKSLSLSPGGGGGSGGGGSGGGGSGGGGSDIQMTQSPSSLSASVGDRVTITCLASEDISNDLAWYQQKPGKAPKLLIYFVDRLLDGVPSRFSGSGSGTDFTLTISSLQPEDFATYYCQQSYKYPPTFGQGTKLEIKGGGGSGGGGSGGGGSGGGGSEVQLVESGGGLVQPGGSLRLSCAASGFTFTNYGLHWVRQAPGKGLEWVSSISPSGGVTYYRDSVKGRFTISRDNSKNTLYLQMNSLRAEDTAVYYCAKPFLGWGGANWIAHWGQGTLVTVSS
light: NIQMTQSPSSLSASVGDRVTITCKAGQNVNNYLAWYQQKPGKAPKVLIFNANSLQTGVPSRFSGSGSGTDFTLTISSLQPEDFATYYCQQYNSWPTFGGGTKVEIKRTVAAPSVFIFPPSDEQLKSGTASVVCLLNNFYPREAKVQWKVDNALQSGNSQESVTEQDSKDSTYSLSSTLTLSKADYEKHKVYACEVTHQGLSSPVTKSFNRGEC
notes: Ly516 HC (IgG1 mutated Fc)-TM559 scFv VL-VH + Ly516 LC
binds: [1] | [2] | [3] | [4]

B2: Ly609 (bispecific antibody, human IgG1, kappa)
heavy: QVTLKESGPALVKPTQTLTLTCTFSGFSLSTSGTCVSWIRQPPGKALEWLATICWEDSKGYNPSLKSRLTISKDTSKNQAVLTMTNMDPVDTATYYCARREDSGYFWFPYWGQGTLVTVSSASTKGPSVFPLAPSSKSTSGGTAALGCLVKDYFPEPVTVSWNSGALTSGVHTFPAVLQSSGLYSLSSVVTVPSSSLGTQTYICNVNHKPSNTKVDKKVEPKSCDKTHTCPPCPAPELLGPSVFLFPPKPKDTLMISRTPEVTCVVVDVSHEDPEVKFNWYVDGVEVHNAKTKPREEQYNSTYRVVSVLTVLHQDWLNGKEYKCKVSNKALPAPIEKTISKAKGQPREPQVYTLPPSREEMTKNQVSLTCLVKGFYPSDIAVEWESNGQPENNYKTTPPVLDSDGSFFLYSKLTVDKSRWQQGNVFSCSVMHEALHNHYTQKSLSLSPGGGGGSGGGGSGGGGSGGGGSEVQLVESGGGLVQPGGSLRLSCAASGFTFTNYGLHWVRQAPGKGLEWVSSISPSGGVTYYRDSVKGRFTISRDNSKNTLYLQMNSLRAEDTAVYYCAKPFLGWGGANWIAHWGQGTLVTVSSGGGGSGGGGSGGGGSGGGGSDIQMTQSPSSLSASVGDRVTITCLASEDISNDLAWYQQKPGKAPKLLIYFVDRLLDGVPSRFSGSGSGTDFTLTISSLQPEDFATYYCQQSYKYPPTFGQGTKLEIK
light: NIQMTQSPSSLSASVGDRVTITCKAGQNVNNYLAWYQQKPGKAPKVLIFNANSLQTGVPSRFSGSGSGTDFTLTISSLQPEDFATYYCQQYNSWPTFGGGTKVEIKRTVAAPSVFIFPPSDEQLKSGTASVVCLLNNFYPREAKVQWKVDNALQSGNSQESVTEQDSKDSTYSLSSTLTLSKADYEKHKVYACEVTHQGLSSPVTKSFNRGEC
notes: Ly516 HC (IgG1 mutated Fc)-TM559 scFv VH-VL + Ly516 LC
binds: [1] | [2] | [3] | [4]

B3: Ly301 (bispecific antibody, human IgG1, kappa)
heavy: QVQLVQSGAEVKKPGASVKVSCKASGYTFTDFWMSWVRQAPGQGLEWMGQIYPNTGTTHSNEKFKGRVTMTRDTSTSTVYMELSSLRSEDTAVYYCARSYHISTTPNWFAYWGQGTLVTVSSASTKGPSVFPLAPSSKSTSGGTAALGCLVKDYFPEPVTVSWNSGALTSGVHTFPAVLQSSGLYSLSSVVTVPSSSLGTQTYICNVNHKPSNTKVDKKVEPKSCDKTHTCPPCPAPELLGPSVFLFPPKPKDTLMISRTPEVTCVVVDVSHEDPEVKFNWYVDGVEVHNAKTKPREEQYNSTYRVVSVLTVLHQDWLNGKEYKCKVSNKALPAPIEKTISKAKGQPREPQVYTLPPSREEMTKNQVSLTCLVKGFYPSDIAVEWESNGQPENNYKTTPPVLDSDGSFFLYSKLTVDKSRWQQGNVFSCSVMHEALHNHYTQKSLSLSPGGGGGSGGGGSGGGGSGGGGSDIQMTQSPSSLSASVGDRVTITCKASQNIYIYLNWYQQKPGKAPKLLIYNTNNLQTGVPSRFSGSGSGTDFTLTISSLQPEDFATYYCLQHSSRRTFGGGTKVEIKGGGGSGGGGSGGGGSGGGGSQVQLVESGGGLVQPGGSLKLSCATSGFNFNDYFMNWVRQASGKGLEWVGQIRNKNYNYATYYTESLEGRVTISRDDSKNTAYLQMNSLKTEDTAVYYCTSYYYDGFADYFDYWGQGTTVTVSS
light: DIQMTQSPSSLSASVGDRVTITCKASQNVYKKLEWYQQKPGKVPKVLIYHTNILQTGVPSRFSGSGSGTDYTLTISSLQPEDVATYYCYQWNSGPTFGGGTKVEIKRTVAAPSVFIFPPSDEQLKSGTASVVCLLNNFYPREAKVQWKVDNALQSGNSQESVTEQDSKDSTYSLSSTLTLSKADYEKHKVYACEVTHQGLSSPVTKSFNRGEC
notes: Ly076 HC (IgG1 mutated Fc)-TM740 scFv VL-VH + Ly076 LC
binds: [1] | [5] | [6] | [7]

B4: Ly338 (bispecific antibody, human IgG1, kappa)
heavy: QVQLVQSGAEVKKPGASVKVSCKASGYTFTDFWMSWVRQAPGQGLEWMGQIYPNTGTTHSNEKFKGRVTMTRDTSTSTVYMELSSLRSEDTAVYYCARSYHISTTPNWFAYWGQGTLVTVSSASTKGPSVFPLAPSSKSTSGGTAALGCLVKDYFPEPVTVSWNSGALTSGVHTFPAVLQSSGLYSLSSVVTVPSSSLGTQTYICNVNHKPSNTKVDKKVEPKSCDKTHTCPPCPAPELLGPSVFLFPPKPKDTLMISRTPEVTCVVVDVSHEDPEVKFNWYVDGVEVHNAKTKPREEQYNSTYRVVSVLTVLHQDWLNGKEYKCKVSNKALPAPIEKTISKAKGQPREPQVYTLPPSREEMTKNQVSLTCLVKGFYPSDIAVEWESNGQPENNYKTTPPVLDSDGSFFLYSKLTVDKSRWQQGNVFSCSVMHEALHNHYTQKSLSLSPGGGGGSGGGGSGGGGSGGGGSQVQLVESGGGLVQPGGSLKLSCATSGFNFNDYFMNWVRQASGKGLEWVGQIRNKNYNYATYYTESLEGRVTISRDDSKNTAYLQMNSLKTEDTAVYYCTSYYYDGFADYFDYWGQGTTVTVSSGGGGSGGGGSGGGGSGGGGSDIQMTQSPSSLSASVGDRVTITCKASQNIYIYLNWYQQKPGKAPKLLIYNTNNLQTGVPSRFSGSGSGTDFTLTISSLQPEDFATYYCLQHSSRRTFGGGTKVEIK
light: DIQMTQSPSSLSASVGDRVTITCKASQNVYKKLEWYQQKPGKVPKVLIYHTNILQTGVPSRFSGSGSGTDYTLTISSLQPEDVATYYCYQWNSGPTFGGGTKVEIKRTVAAPSVFIFPPSDEQLKSGTASVVCLLNNFYPREAKVQWKVDNALQSGNSQESVTEQDSKDSTYSLSSTLTLSKADYEKHKVYACEVTHQGLSSPVTKSFNRGEC
notes: Ly076 HC (IgG1 mutated Fc)-TM740 scFv VH-VL + Ly076 LC
binds: [1] | [5] | [6] | [7]
